The record followed here is paper PMC9249733 (Nature Communications, 2022).

Residue numbers refer to the chain shown, from its start.

A word on the EC50: it is the concentration at which the effect is half-maximal.

Assay [1] concerns the target T1, biotinylated hepatocyte growth factor receptor (HGFR) (Homo sapiens (assumed; species not …, UniProt P08581, biotin).
T1 construct: hepatocyte growth factor receptor (c-Met, tyrosine-protein kinase Met); bought biotinylated protein; The library sorting and the scFab measurements on yeast used another construct (extracellular domain as Fc fusion, Acro Biosciences MET-H5256); also called c-Met; tyrosine-protein kinase Met; source: bought: Sino Biological 10692-H27H-B
The assay can be described thus: flow cytometry of antibody-coated beads; IgG (0.076 ug/mL) captured on Protein A Dynabeads overnight; biotinylated HGFR in PBSB at a range of concentrations at 10x molar excess, 3 h, room temperature; detected with streptavidin-AF647; median fluorescence. As to conditions: both partners purified.

The target of assay [2] is T1, biotinylated hepatocyte growth factor …. The assay can be described thus: flow cytometry of antibody-coated beads; single point; IgG (15 ug/mL) captured on Protein A Dynabeads overnight at 4 C; 1 nM biotinylated HGFR or 0.1 mg/mL biotinylated ovalbumin in PBSB, 3 h, room temperature; streptavidin-AF647; scores normalised between emibetuzumab (high) and elotuzumab (low). Conditions: both partners purified.

T1 sequence (P08581 25-932): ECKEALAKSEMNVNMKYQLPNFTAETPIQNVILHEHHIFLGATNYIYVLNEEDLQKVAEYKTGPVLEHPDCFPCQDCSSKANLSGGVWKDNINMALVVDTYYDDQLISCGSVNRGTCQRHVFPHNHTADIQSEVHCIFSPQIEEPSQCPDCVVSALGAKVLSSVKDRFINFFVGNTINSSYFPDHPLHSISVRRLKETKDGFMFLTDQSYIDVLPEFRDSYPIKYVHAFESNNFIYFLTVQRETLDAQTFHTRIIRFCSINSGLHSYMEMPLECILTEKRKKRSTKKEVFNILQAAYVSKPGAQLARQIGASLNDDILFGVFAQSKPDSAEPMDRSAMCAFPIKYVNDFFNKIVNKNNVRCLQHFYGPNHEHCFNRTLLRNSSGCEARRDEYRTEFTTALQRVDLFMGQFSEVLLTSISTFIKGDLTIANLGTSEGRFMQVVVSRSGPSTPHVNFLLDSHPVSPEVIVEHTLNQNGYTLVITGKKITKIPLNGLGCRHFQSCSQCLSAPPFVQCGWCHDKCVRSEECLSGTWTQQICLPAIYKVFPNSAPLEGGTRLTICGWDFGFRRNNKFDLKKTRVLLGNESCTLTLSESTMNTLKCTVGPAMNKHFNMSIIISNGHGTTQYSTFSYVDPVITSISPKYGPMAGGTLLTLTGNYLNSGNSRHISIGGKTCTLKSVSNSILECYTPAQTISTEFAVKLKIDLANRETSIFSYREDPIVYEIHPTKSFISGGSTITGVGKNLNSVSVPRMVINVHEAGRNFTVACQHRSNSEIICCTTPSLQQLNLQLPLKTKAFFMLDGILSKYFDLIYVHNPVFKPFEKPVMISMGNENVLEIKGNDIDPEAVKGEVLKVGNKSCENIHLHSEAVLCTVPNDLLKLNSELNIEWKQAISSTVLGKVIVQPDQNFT

B1: emibetuzumab (wild type), soluble IgG1 (antibody, V domains shown)
VH: QVQLVQSGAEVKKPGASVKVSCKASGYTFTDYYMHWVRQAPGQGLEWMGRVNPNRRGTTYNQKFEGRVTMTTDTSTSTAYMELRSLRSDDTAVYYCARANWLDYWGQGTTVTVSS
VL: DIQMTQSPSSLSASVGDRVTITCSVSSSVSSIYLHWYQQKPGKAPKLLIYSTSNLASGVPSRFSGSGSGTDFTLTISSLQPEDFATYYCQVYSGYPLTFGGGTKVEIK
In assay [1], B1 displayed an EC50 of 4.4 nM.

B2: EM2, emibetuzumab variant, soluble IgG1 (antibody, V domains shown)
VH: B1 VH with R55G, A99S, W101L, D103E, Y104D
VL: B1 VL
B2 had an EC50 in assay [1] of 2.4 nM. The “antigen binding at 1 nM HGFR relative to wild type” value in assay [2] was 1.28 x of wild type.

B3: EM1, emibetuzumab variant, soluble IgG1 (antibody, V domains shown)
VH: B1 VH with R55G, A99S, W101L, Y104D
VL: B1 VL
In assay [1], B3 gave an EC50 of 2.6 nM. In assay [2], the “antigen binding at 1 nM HGFR relative to wild type” value is 1.2 x of wild type.
